Assay results: paper PMC6321125, “Characterization of a Carbonyl Reductase from Rhodococcus erythropolis WZ010 and Its Variant Y54F for Asymmetric Synthesis of (S)-N-Boc-3-Hydroxypiperidine” (Molecules, 2018)
Positions count from the first letter of the chain named. Names may count otherwise.

B1: ReCR (Rhodococcus erythropolis; G336R/K233S/K67R/N94S/Q110S) (protein)
chain: MKAIQYTRIGAEPELTEIPKPEPGPGEVLLEVTAAGVCHSDDFIMSLPEEQYTYGLPLTLGHEGAGRVAAVGEGVEGLDIGTNVVVYGPWGCGSCWHCSQGLENYCSRASELGINPPGLGAPGALAEFMIVDSPRHLVPIGDLDPVKTVPLTDAGLTPYHAIKRSLPKLRGGSYAVVIGTGGLGHVAIQLLRHLSAATVIALDVSADKLELATKVGAHEVVLSDKDAAENVRSITGSQGAALVLDFVGYQPTIDTAMAVAGVGSDVTIVGIGDGQAHAKVGFFQSPYEASVTVPYWGARNELIELIDLAHAGIFDIAVETFSLDNGAEAYRRLAARTLSGRAVVVPGL
B2: ReCR (Rhodococcus erythropolis; G336R/K233S/K67R/N94S/Q110S/Y54F) (protein)
chain: B1 chain with Y54F

What was measured:
Assay in all cases: purified protein
[1] = substrate: CC(C)O; details: apparent, 0.4 mM NAD+, standard assay 50 mM CAPSO pH 10.0, 50 °C
[2] = substrate: CC(C)=O; format: biochemical, Rhodococcus erythropolis; details: apparent, 0.4 mM NADH, standard assay 50 mM PIPES pH 6.0, 60 °C
[3] = substrate: CCCCCCC(C)O; format: biochemical, Rhodococcus erythropolis; details: apparent, 0.4 mM NAD+, standard assay 50 mM CAPSO pH 10.0, 50 °C
[4] = substrate: CC(C)(C)OC(=O)N1CCCC(=O)C1; format: biochemical, Rhodococcus erythropolis; details: apparent, 0.4 mM NADH, standard assay 50 mM PIPES pH 6.0, 60 °C
[5] = substrate: CCCCCCC(C)=O; format: biochemical, Rhodococcus erythropolis; details: apparent, 0.4 mM NADH, standard assay 50 mM PIPES pH 6.0, 60 °C

Protein	Km [1] [µM]	Vmax [1] [µmol/min/mg]	kcat [1] [s⁻¹]	kcat/Km [1] [M⁻¹ s⁻¹]	Km [2] [µM]	Vmax [2] [µmol/min/mg]	kcat [2] [s⁻¹]	kcat/Km [2] [M⁻¹ s⁻¹]	Km [3] [µM]	Vmax [3] [µmol/min/mg]	kcat [3] [s⁻¹]	kcat/Km [3] [M⁻¹ s⁻¹]	Km [4] [µM]	Vmax [4] [µmol/min/mg]	kcat [4] [s⁻¹]	kcat/Km [4] [M⁻¹ s⁻¹]	Km [5] [µM]	Vmax [5] [µmol/min/mg]	kcat [5] [s⁻¹]	kcat/Km [5] [M⁻¹ s⁻¹]
B1	1460 ± 60	23.5	14.2	9740	46060 ± 2620	66.3	40.1 ± 1.98	870 ± 40	4940 ± 450	107	64.4 ± 1.66	13000 ± 340	1740 ± 80	104	62.6 ± 1.49	36000 ± 860	3290 ± 50	236	142 ± 3.11	43300 ± 950
B2	1030 ± 50	35.3	21.3	20700	37320 ± 560	90.5	54.7 ± 1.02	1470 ± 30	1370 ± 80	128	77.5 ± 1.88	56600 ± 1370	1730 ± 50	141	85.1 ± 3.94	49200 ± 2280	3110 ± 120	274	165 ± 4.58	53200 ± 1470
